How the values were obtained:
[1] = biological target: hCLDN proteins on the surface of PDX tumor cells; assay: flow cytometry on OV44 (OV-S) PDX tumor cells, NTG subpopulation; change in geometric MFI against the IgG1 isotype control
[2] = biological target: hCLDN proteins on the surface of PDX tumor cells; assay: flow cytometry on PA20 (PDAC) PDX tumor cells, NTG subpopulation; change in geometric MFI against the IgG1 isotype control
[3] = biological target: hCLDN proteins on the surface of PDX tumor cells; assay: flow cytometry on PA24 (PDAC) PDX tumor cells, NTG subpopulation; change in geometric MFI against the IgG1 isotype control
[4] = biological target: hCLDN proteins on the surface of PDX tumor cells; assay: flow cytometry on PA49 (PDAC) PDX tumor cells, NTG subpopulation; change in geometric MFI against the IgG1 isotype control
[5] = biological target: hCLDN proteins on the surface of PDX tumor cells; assay: flow cytometry on LU22 (LU-Sq) PDX tumor cells, NTG subpopulation; change in geometric MFI against the IgG1 isotype control
[6] = biological target: hCLDN proteins on the surface of PDX tumor cells; assay: flow cytometry on LU135 (LU-Ad) PDX tumor cells, NTG subpopulation; change in geometric MFI against the IgG1 isotype control
[7] = biological target: hCLDN proteins on the surface of PDX tumor cells; assay: flow cytometry on OV54MET (OV-S) PDX tumor cells, NTG subpopulation; change in geometric MFI against the IgG1 isotype control
[8] = biological target: hCLDN proteins on the surface of PDX tumor cells; assay: flow cytometry on OV91MET (OV-PS) PDX tumor cells, NTG subpopulation; change in geometric MFI against the IgG1 isotype control
[9] = biological target: hCLDN proteins on the surface of PDX tumor cells; assay: flow cytometry on OV44 (OV-S) PDX tumor cells, CSC subpopulation (EPCAM+ CD46hi CD324+); change in geometric MFI against the IgG1 isotype control
[10] = biological target: hCLDN proteins on the surface of PDX tumor cells; assay: flow cytometry on PA20 (PDAC) PDX tumor cells, CSC subpopulation (EPCAM+ CD46hi CD324+); change in geometric MFI against the IgG1 isotype control
[11] = biological target: hCLDN proteins on the surface of PDX tumor cells; assay: flow cytometry on PA24 (PDAC) PDX tumor cells, CSC subpopulation (EPCAM+ CD46hi CD324+); change in geometric MFI against the IgG1 isotype control
[12] = biological target: hCLDN proteins on the surface of PDX tumor cells; assay: flow cytometry on PA49 (PDAC) PDX tumor cells, CSC subpopulation (EPCAM+ CD46hi CD324+); change in geometric MFI against the IgG1 isotype control
[13] = biological target: hCLDN proteins on the surface of PDX tumor cells; assay: flow cytometry on LU22 (LU-Sq) PDX tumor cells, CSC subpopulation (EPCAM+ CD46hi CD324+); change in geometric MFI against the IgG1 isotype control
[14] = biological target: hCLDN proteins on the surface of PDX tumor cells; assay: flow cytometry on LU135 (LU-Ad) PDX tumor cells, CSC subpopulation (EPCAM+ CD46hi CD324+); change in geometric MFI against the IgG1 isotype control
[15] = biological target: hCLDN proteins on the surface of PDX tumor cells; assay: flow cytometry on OV54MET (OV-S) PDX tumor cells, CSC subpopulation (EPCAM+ CD46hi CD324+); change in geometric MFI against the IgG1 isotype control
[16] = biological target: hCLDN proteins on the surface of PDX tumor cells; assay: flow cytometry on OV91MET (OV-PS) PDX tumor cells, CSC subpopulation (EPCAM+ CD46hi CD324+); change in geometric MFI against the IgG1 isotype control
human CLDN6 protein [17] = biological target: T1, human CLDN6 protein (human, UniProt P56747 1-220); assay: cell-based or functional assay
T1 sequence (looked up): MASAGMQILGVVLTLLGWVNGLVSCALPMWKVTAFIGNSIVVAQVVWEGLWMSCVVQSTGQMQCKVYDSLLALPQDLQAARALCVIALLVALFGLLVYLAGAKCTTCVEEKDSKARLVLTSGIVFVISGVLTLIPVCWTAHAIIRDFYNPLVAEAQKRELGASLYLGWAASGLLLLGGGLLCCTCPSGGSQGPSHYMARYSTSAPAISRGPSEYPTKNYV

human CLDN9 protein [18] = biological target: T2, human CLDN9 protein (human, UniProt O95484 1-217); assay: cell-based or functional assay
T2 sequence (looked up): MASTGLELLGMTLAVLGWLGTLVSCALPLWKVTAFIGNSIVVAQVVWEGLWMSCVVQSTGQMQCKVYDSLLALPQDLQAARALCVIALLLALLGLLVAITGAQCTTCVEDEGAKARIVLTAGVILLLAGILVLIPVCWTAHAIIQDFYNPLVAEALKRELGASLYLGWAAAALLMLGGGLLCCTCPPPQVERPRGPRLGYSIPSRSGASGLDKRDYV

human CLDN6 protein [19] = biological target: T1, human CLDN6 protein; assay: cell-based or functional assay; remark: listed apart in the source
human CLDN9 protein [20] = biological target: T2, human CLDN9 protein; assay: cell-based or functional assay; remark: listed apart in the source
human CLDN4 protein [21] = biological target: T3, human CLDN4 protein (human, UniProt O14493 1-209); assay: flow cytometry on cells overexpressing human CLDN4; Alexa 647 anti-mouse secondary; single point
T3 construct: whole, on cells; also called hCLDN4; claudin 4
T3 sequence (looked up): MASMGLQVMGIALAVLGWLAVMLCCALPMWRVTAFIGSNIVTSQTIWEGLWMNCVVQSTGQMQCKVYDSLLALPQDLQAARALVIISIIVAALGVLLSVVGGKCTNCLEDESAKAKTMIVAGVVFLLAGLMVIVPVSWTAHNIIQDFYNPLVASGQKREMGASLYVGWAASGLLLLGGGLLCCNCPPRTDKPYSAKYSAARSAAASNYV

human CLDN4 protein [22] = biological target: T3, human CLDN4 protein; assay: flow cytometry on cells overexpressing human CLDN4; 10 µg/mL purified antibody, Alexa 647 anti-mouse secondary; single point
human CLDN6 protein [23] = biological target: T1, human CLDN6 protein; assay: flow cytometry on cells overexpressing human CLDN6; 10 µg/mL purified antibody, Alexa 647 anti-mouse secondary; single point
human CLDN9 protein [24] = biological target: T2, human CLDN9 protein; assay: flow cytometry on cells overexpressing human CLDN9; 10 µg/mL purified antibody, Alexa 647 anti-mouse secondary; single point
human CLDN6 protein [25] = biological target: T1, human CLDN6 protein; assay: flow cytometry, antibody titration on HEK-293T cells overexpressing CLDN6, four parameter fit of fraction maximal binding; HEK-293T cells overexpressing CLDN6
Description: (§1) Following additional washing with PBS, cells were fixed with paraformaldehyde (PFA) and read on a BD FACS Canto II flow cytometer in accordance with the manufacturer's instructions. MFI values were normalized using fluorescent microspheres (Bangs Laboratories) according to manufacturer's instructions.

human CLDN9 protein [26] = biological target: T2, human CLDN9 protein; assay: flow cytometry, antibody titration on HEK-293T cells overexpressing CLDN9, four parameter fit of fraction maximal binding; HEK-293T cells overexpressing CLDN9
Description: as §1

B1: SC27.1 mouse monoclonal anti-CLDN antibody (antibody, V domains shown)
VH: EVQLQESRPELVKPGASVKISCKTSGYTFTEYTLHWVKQSHGKSLEWIGGINPNNGDTIYNQKFKGKATLTVDKSSSTAYMELRSLTSEYSAVYYCARRAITVYAMDYWGQGTSVTVSS
VL: DIQMTQSSSSFSVSLGDRVTITCKASEDIYNRLAWYQQKPGNAPRLLISGATSLETGTPSRFSGSGSGKDYTLSITSLRTEDAATYYCQQYWSTPLTFGTGTKLELK
Question: Which ΔMFI [1] does the source give for B1 here?
Answer: 53

Question: What about the ΔMFI [2] of the same binder?
Answer: 60

Question: What about the ΔMFI [3] of the same binder?
Answer: 223

Question: What about the ΔMFI [4] of the same binder?
Answer: 0

Question: What about the ΔMFI [5] of the same binder?
Answer: 31

Question: What about the ΔMFI [6] of the same binder?
Answer: 17

Question: And the ΔMFI [7]?
Answer: 21

Question: And the ΔMFI [8]?
Answer: 0

Question: And the ΔMFI [9]?
Answer: 643

Question: What about the ΔMFI [10] of the same binder?
Answer: 250

Question: And the ΔMFI [11]?
Answer: 1580

Question: What about the ΔMFI [12] of the same binder?
Answer: 194

Question: And the ΔMFI [13]?
Answer: 733

Question: And the ΔMFI [14]?
Answer: 88

Question: What about the ΔMFI [15] of the same binder?
Answer: 763

Question: What about the ΔMFI [16] of the same binder?
Answer: 118

B2: SC27.103 mouse monoclonal anti-CLDN antibody (antibody, V domains shown)
VH: EVHLQQSGPELVKPGGSMKISCKASGYSFTGYTMNWVKQSHGKNLEWIGLFNPYNGGTSYNQKFKGKATLTVDKSSSTAYMELLSLTSEDSAVYYCARCYRYDGLDYWGQGTTLTVSS
VL: QIVLTQSPAIMSASLGERVTMTCTASSSVSSSYLHWYQQKPGSSPTLWIYRTSDLASGVPARFSGSGSGTSYSLTISSMEAEDAATYYCHQYHRSPWTFGGGTRLEIK
Question: What does the source list for B2?
Answer: apparent IC50 of saporin-mediated cell killing (human CLDN6 protein [17]): 58 nM; apparent IC50 of saporin-mediated cell killing (human CLDN9 protein [18]): 466 nM; apparent IC50 of killing of HEK-293T cells overexpressing hCLDN6; antibody titrated 0.15 to 1000 nM with anti-mouse IgG Fab-saporin, CellTiter-Glo (human CLDN6 protein [19]): 57.7 nM; apparent IC50 of killing of HEK-293T cells overexpressing hCLDN9; antibody titrated 0.15 to 1000 nM with anti-mouse IgG Fab-saporin, CellTiter-Glo (human CLDN9 protein [20]): 466 nM; binding result (human CLDN4 protein [21]): no binding (tested: 10 µg/mL); MFI (human CLDN4 protein [22]): 75; MFI (human CLDN6 protein [23]): 99600; MFI (human CLDN9 protein [24]): 12100

B3: hSC27.22 humanized anti-CLDN antibody (antibody, human IgG1, kappa, V domains shown)
VH: QVQLVQSGAEVKKPGASVKVSCKASGYTFTSYWMNWVRQAPGQRLEWMGMIHPSDSEIRLNQKFKDRVTITRDTSASTAYMELSSLRSEDTAVYYCARIDSYYGYLFYFDYWGQGTTVTVSS
VL: DIVMTQSPDSLAVSLGERATINCRASQTVSTSSYSYMHWYQQKPGQPPKLLIYFASNVESGVPDRFSGSGSGTDFTLTISSLQAEDVAVYYCQHSWEIPWTFGQGTKLEIKR
Question: Which results are given for B3?
Answer: EC50 (human CLDN6 protein [25]): 3.45 µg/mL; EC50 (human CLDN9 protein [26]): 4.66 µg/mL

From patent US20190077876A1 (AbbVie / Abbott, published 2019)
